This is an account of results in paper PMC3425481, “Differential Regulation of Smad3 and of the Type II Transforming Growth Factor-β Receptor in Mitosis: Implications for Signaling” (PLoS ONE, 2012).

For the test, the target named is T1, Smad3 phosphorylated at the C-terminus (pSmad3C) (human (endogenous in ES-2), UniProt P84022 1-425, phospho-serines 423/425 (C-terminal SSXS motif)).
T1 construct: Smad3, endogenous in human ES-2 ovarian cancer cells, precipitated with α-pSmad3C (raised against phospho-serines 423/425 of Smad3); The α-pSmad3C antibody cross-reacts with C-terminus phosphorylated Smad2; In 2ME2-arrested cells Smad3 is also phosphorylated on threonine 179, but pSmad3(179) was detected inconsistently in the immunoprecipitates; also called C-terminally phosphorylated Smad3; …
The test can be described thus: co-IP; immunoprecipitation with α-pSmad3C (overnight, 4°C) and protein A-sepharose from lysates of 10^8 ES-2 cells treated with TGF-β1 (1 h) or 2ME2 (16 h); 420 mM NaCl, 50 mM Hepes pH 7.8, 5 mM EDTA, 1% NP-40, 3% DTT; blots with α-Ski, α-Smurf2, α-tSmad2/3; control: sepharose beads alone. The conditions noted are these: partners not purified.

T1 sequence (P84022 whole entry): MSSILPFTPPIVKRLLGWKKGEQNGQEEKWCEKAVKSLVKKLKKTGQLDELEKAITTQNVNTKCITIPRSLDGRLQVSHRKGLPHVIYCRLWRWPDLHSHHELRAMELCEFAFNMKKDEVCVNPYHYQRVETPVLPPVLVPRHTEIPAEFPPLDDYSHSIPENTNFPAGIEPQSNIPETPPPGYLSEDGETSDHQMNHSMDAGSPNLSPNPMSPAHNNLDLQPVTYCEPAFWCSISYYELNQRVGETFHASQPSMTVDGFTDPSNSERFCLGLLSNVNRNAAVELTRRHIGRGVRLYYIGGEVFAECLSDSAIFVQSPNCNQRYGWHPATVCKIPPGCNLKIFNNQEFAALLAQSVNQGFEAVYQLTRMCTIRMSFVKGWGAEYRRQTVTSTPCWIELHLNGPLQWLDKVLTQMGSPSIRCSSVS

B1: Ski (natural protein, human (endogenous in ES-2), UniProt P12755 1-728, looked up)
chain: MEAAAGGRGCFQPHPGLQKTLEQFHLSSMSSLGGPAAFSARWAQEAYKKESAKEAGAAAVPAPVPAATEPPPVLHLPAIQPPPPVLPGPFFMPSDRSTERCETVLEGETISCFVVGGEKRLCLPQILNSVLRDFSLQQINAVCDELHIYCSRCTADQLEILKVMGILPFSAPSCGLITKTDAERLCNALLYGGAYPPPCKKELAASLALGLELSERSVRVYHECFGKCKGLLVPELYSSPSAACIQCLDCRLMYPPHKFVVHSHKALENRTCHWGFDSANWRAYILLSQDYTGKEEQARLGRCLDDVKEKFDYGNKYKRRVPRVSSEPPASIRPKTDDTSSQSPAPSEKDKPSSWLRTLAGSSNKSLGCVHPRQRLSAFRPWSPAVSASEKELSPHLPALIRDSFYSYKSFETAVAPNVALAPPAQQKVVSSPPCAAAVSRAPEPLATCTQPRKRKLTVDTPGAPETLAPVAAPEEDKDSEAEVEVESREEFTSSLSSLSSPSFTSSSSAKDLGSPGARALPSAVPDAAAPADAPSGLEAELEHLRQALEGGLDTKEAKEKFLHEVVKMRVKQEEKLSAALQAKRSLHQELEFLRVAKKEKLREATEAKRNLRKEIERLRAENEKKMKEANESRLRLKRELEQARQARVCDKGCEAGRLRAKYSAQIEDLQVKLQHAEADREQLRADLLREREAREHLEKVVKELQEQLWPRARPEAAGSEGAAELEP
notes: Ski, endogenous in human ES-2 ovarian cancer cells, detected with α-Ski (Santa Cruz); source: endogenous, ES-2 cell lysate
B1: the “fold increase of the Ski/tSmad3 ratio in the anti-pSmad3C immunoprecipitate, 2ME2-arrested cells relative to TGF-β1-activated cells” value came out at 7.7 ± 1.7 fold.
